Key:
[1] = biological target: T1, Human Her2/ErbB2 Protein, Fc Tag (ACRO Biosystems, Cat# HE2-H5253) (human, UniProt P04626 23-652); test: ELISA: protein on FMC63-coated plate, Her2-Fc titrated, anti-hIgGFc-HRP
T1 construct: Bought; also called Her2-Fc; HER2-hFc; not shown: Fc tag of the bought protein

[2] = biological target: T2, Human BCMA Protein, Fc Tag (R&D Systems, Cat#193-BC-050) (human, UniProt Q02223 1-54); test: ELISA, plate-bound BCMA-Fc, anti-His-HRP
T2 construct: Bought; also called Human BCMA-Fc; not shown: Fc tag of the bought protein
T2 sequence (looked up): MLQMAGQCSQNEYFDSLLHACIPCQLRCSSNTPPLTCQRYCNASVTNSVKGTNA

[3] = biological target: T3, CD20 on stable transfectant line 293-CD20 (UniProt P11836 1-297); test: flow cytometry on 293-CD20 cells, FMC63-PE
T3 construct: whole, on cells; also called CD20 expressing 293 cells
T3 sequence (looked up): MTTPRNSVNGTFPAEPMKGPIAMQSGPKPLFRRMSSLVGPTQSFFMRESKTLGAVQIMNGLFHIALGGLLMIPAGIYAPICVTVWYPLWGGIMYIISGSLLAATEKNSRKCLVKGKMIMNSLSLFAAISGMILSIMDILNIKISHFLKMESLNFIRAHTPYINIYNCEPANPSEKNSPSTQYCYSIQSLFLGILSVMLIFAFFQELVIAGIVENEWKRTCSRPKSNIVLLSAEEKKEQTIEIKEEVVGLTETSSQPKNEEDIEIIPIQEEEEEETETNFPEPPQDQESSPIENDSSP

[4] = biological target: T3, CD20 on stable transfectant line …; test: flow cytometry on 293-CD20 cells, anti-His-PE or FMC63-PE
[5] = biological target: T3, CD20 on stable transfectant line …; test: flow cytometry on 293-CD20 cells, 200 µl fusion protein, FMC63-PE
[6] = biological target: T3, CD20 on stable transfectant line …; test: flow cytometry on 293-CD20 cells, 200 µl fusion protein, anti-His-PE

B1: purified CD19 protein control (other, UniProt P15391 20-291, looked up)
chain: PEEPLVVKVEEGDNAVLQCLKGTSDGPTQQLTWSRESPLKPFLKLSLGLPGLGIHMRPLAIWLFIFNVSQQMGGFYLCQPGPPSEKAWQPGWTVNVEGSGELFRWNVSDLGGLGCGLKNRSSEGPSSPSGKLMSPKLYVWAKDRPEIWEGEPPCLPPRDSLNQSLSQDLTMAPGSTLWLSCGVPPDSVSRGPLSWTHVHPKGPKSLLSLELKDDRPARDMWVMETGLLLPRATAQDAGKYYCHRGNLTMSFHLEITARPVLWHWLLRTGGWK
B1: no binding [1].

B2: C11D5.3 scFv (VL/VH) (scFv)
scFv: DIVLTQSPPSLAMSLGKRATISCRASESVTILGSHLIHWYQQKPGQPPTLLIQLASNVQTGVPARFSGSGSRTDFTLTIDPVEEDDVAVYYCLQSRTIPRTFGGGTKLEIKGSTSGSGKPGSGEGSTKGQIQLVQSGPELKKPGETVKISCKASGYTFTDYSINWVKRAPGKGLKWMGWINTETREPAYAYDFRGRFAFSLETSASTAYLQINNLKYEDTATYFCALDYSYAMDYWGQGTSVTVSSGGGGSGGGGSGGGGSHHHHHH
notes: His-tagged; also called construct #89; #89
B2: binds [2].

B3: CD19-D1+2-C11D5.3 scFv (VH/VL) (scFv)
chain: PEEPLVVKVEEGDNAVLQCLKGTSDGPTQQLTWSRESPLKPFLKLSLGLPGLGIHMRPLAIWLFIFNVSQQMGGFYLCQPGPPSEKAWQPGWTVNVEGSGELFRWNVSDLGGLGCGLKNRSSEGPSSPSGKLMSPKLYVWAKDRPEIWEGEPPCLPPRDSLNQSLSQDLTMAPGSTLWLSCGVPPDSVSRGPLSWTHVHPKGPKSLLSLELKDDRPARDMWVMETGLLLPRATAQDAGKYYCHRGNLTMSFHLEITARPGGGGSGGGGSGGGGSGGGGSQIQLVQSGPELKKPGETVKISCKASGYTFTDYSINWVKRAPGKGLKWMGWINTETREPAYAYDFRGRFAFSLETSASTAYLQINNLKYEDTATYFCALDYSYAMDYWGQGTSVTVSSGSTSGSGKPGSGEGSTKGDIVLTQSPPSLAMSLGKRATISCRASESVTILGSHLIHWYQQKPGQPPTLLIQLASNVQTGVPARFSGSGSRTDFTLTIDPVEEDDVAVYYCLQSRTIPRTFGGGTKLEIKGGGGSGGGGSGGGGSHHHHHH
notes: His-tagged; also called construct #92; #92
B3: binds [2].

B4: CD19-D1+2-C11D5.3 scFv (VL/VH) (scFv)
chain: PEEPLVVKVEEGDNAVLQCLKGTSDGPTQQLTWSRESPLKPFLKLSLGLPGLGIHMRPLAIWLFIFNVSQQMGGFYLCQPGPPSEKAWQPGWTVNVEGSGELFRWNVSDLGGLGCGLKNRSSEGPSSPSGKLMSPKLYVWAKDRPEIWEGEPPCLPPRDSLNQSLSQDLTMAPGSTLWLSCGVPPDSVSRGPLSWTHVHPKGPKSLLSLELKDDRPARDMWVMETGLLLPRATAQDAGKYYCHRGNLTMSFHLEITARPGGGGSGGGGSGGGGSGGGGSDIVLTQSPPSLAMSLGKRATISCRASESVTILGSHLIHWYQQKPGQPPTLLIQLASNVQTGVPARFSGSGSRTDFTLTIDPVEEDDVAVYYCLQSRTIPRTFGGGTKLEIKGSTSGSGKPGSGEGSTKGQIQLVQSGPELKKPGETVKISCKASGYTFTDYSINWVKRAPGKGLKWMGWINTETREPAYAYDFRGRFAFSLETSASTAYLQINNLKYEDTATYFCALDYSYAMDYWGQGTSVTVSSGGGGSGGGGSGGGGSHHHHHH
notes: His-tagged; also called construct #91; #91
B4: binds [2].

B5: CD19-D1+2-Leu16 scFv (VL/VH) (scFv)
chain: PEEPLVVKVEEGDNAVLQCLKGTSDGPTQQLTWSRESPLKPFLKLSLGLPGLGIHMRPLAIWLFIFNVSQQMGGFYLCQPGPPSEKAWQPGWTVNVEGSGELFRWNVSDLGGLGCGLKNRSSEGPSSPSGKLMSPKLYVWAKDRPEIWEGEPPCLPPRDSLNQSLSQDLTMAPGSTLWLSCGVPPDSVSRGPLSWTHVHPKGPKSLLSLELKDDRPARDMWVMETGLLLPRATAQDAGKYYCHRGNLTMSFHLEITARPGGGGSGGGGSGGGGSGGGGSDIELTQSPTILSASPGEKVTMTCRASSSVNYMDWYQKKPGSSPKPWIYATSNLASGVPARFSGSGSGTSYSLTISRVEAEDAATYYCQQWSFNPPTFGGGTKLEIKRGGGGSGGGGSGGGGSMAQVKLQESGAELVKPGASVKMSCKASGYTFTSYNMHWVKQTPGQGLEWIGAIYPGNGDTSYNQKFKGKATLTADKSSSTAYMQLSSLTSEDSADYYCARSNYYGSSYWFFDVWGQGTTVTVSSAAAHHHHHH
notes: C-terminal His tag; also called construct #85; #85
B5: no binding (tested: 200 µl fusion protein) [3].

B6: CD19-D1+2-Leu16 scFv (VH/VL) (scFv)
chain: PEEPLVVKVEEGDNAVLQCLKGTSDGPTQQLTWSRESPLKPFLKLSLGLPGLGIHMRPLAIWLFIFNVSQQMGGFYLCQPGPPSEKAWQPGWTVNVEGSGELFRWNVSDLGGLGCGLKNRSSEGPSSPSGKLMSPKLYVWAKDRPEIWEGEPPCLPPRDSLNQSLSQDLTMAPGSTLWLSCGVPPDSVSRGPLSWTHVHPKGPKSLLSLELKDDRPARDMWVMETGLLLPRATAQDAGKYYCHRGNLTMSFHLEITARPGGGGSGGGGSGGGGSGGGGSMAQVKLQESGAELVKPGASVKMSCKASGYTFTSYNMHWVKQTPGQGLEWIGAIYPGNGDTSYNQKFKGKATLTADKSSSTAYMQLSSLTSEDSADYYCARSNYYGSSYWFFDVWGQGTTVTVSSGGGGSGGGGSGGGGSDIELTQSPTILSASPGEKVTMTCRASSSVNYMDWYQKKPGSSPKPWIYATSNLASGVPARFSGSGSGTSYSLTISRVEAEDAATYYCQQWSFNPPTFGGGTKLEIKRAAAHHHHHH
notes: C-terminal His tag; also called construct #83; #83
B6: binds [4].

B7: CD19-ECD-Leu16 scFv (VH/VL) (scFv)
chain: PEEPLVVKVEEGDNAVLQCLKGTSDGPTQQLTWSRESPLKPFLKLSLGLPGLGIHMRPLAIWLFIFNVSQQMGGFYLCQPGPPSEKAWQPGWTVNVEGSGELFRWNVSDLGGLGCGLKNRSSEGPSSPSGKLMSPKLYVWAKDRPEIWEGEPPCLPPRDSLNQSLSQDLTMAPGSTLWLSCGVPPDSVSRGPLSWTHVHPKGPKSLLSLELKDDRPARDMWVMETGLLLPRATAQDAGKYYCHRGNLTMSFHLEITARPVLWHWLLRTGGWKGGGGSGGGGSGGGGSGGGGSEVQLQQSGAELVKPGASVKMSCKASGYTFTSYNMHWVKQTPGQGLEWIGAIYPGNGDTSYNQKFKGKATLTADKSSSTAYMQLSSLTSEDSADYYCARSNYYGSSYWFFDVWGAGTTVTVSSGSTSGGGSGGGSGGGGSSDIVLTQSPAILSASPGEKVTMTCRASSSVNYMDWYQKKPGSSPKPWIYATSNLASGVPARFSGSGSGTSYSLTISRVEAEDAATYYCQQWSFNPPTFGGGTKLEIKHHHHHH
notes: C-terminal His tag; also called construct #63; #63
B7: binds [5].

B8: C11D5.3 scFv (VH/VL) (scFv)
scFv: QIQLVQSGPELKKPGETVKISCKASGYTFTDYSINWVKRAPGKGLKWMGWINTETREPAYAYDFRGRFAFSLETSASTAYLQINNLKYEDTATYFCALDYSYAMDYWGQGTSVTVSSGSTSGSGKPGSGEGSTKGDIVLTQSPPSLAMSLGKRATISCRASESVTILGSHLIHWYQQKPGQPPTLLIQLASNVQTGVPARFSGSGSRTDFTLTIDPVEEDDVAVYYCLQSRTIPRTFGGGTKLEIKGGGGSGGGGSGGGGSHHHHHH
notes: His-tagged; also called construct #90; #90
B8: binds [2].

B9: CD22-D123-Leu16 scFv (VH/VL) (scFv)
chain: DSSKWVFEHPETLYAWEGACVWIPCTYRALDGDLESFILFHNPEYNKNTSKFDGTRLYESTKDGKVPSEQKRVQFLGDKNKACTLSIHPVHLNDSGQLGLRMESKTEKWMERIHLNVSERPFPPHIQLPPEIQESQEVTLTCLLNFSCYGYPIQLQWLLEGVPMRQAAVTSTSLTIKSVFTRSELKFSPQWSHHGKIVTCQLQDADGKFLSNDTVQLNVKHTPKLEIKVTPSDAIVREGDSVTMTCEVSSSNPEYTTVSWLKDGTSLKKQNTFTLNLREVTKDQSGKYCCQVSNDVGPGRSEEVFLQVQYAPEGGGGSGGGGSGGGGSGGGGSEVQLQQSGAELVKPGASVKMSCKASGYTFTSYNMHWVKQTPGQGLEWIGAIYPGNGDTSYNQKFKGKATLTADKSSSTAYMQLSSLTSEDSADYYCARSNYYGSSYWFFDVWGAGTTVTVSSGSTSGGGSGGGSGGGGSSDIVLTQSPAILSASPGEKVTMTCRASSSVNYMDWYQKKPGSSPKPWIYATSNLASGVPARFSGSGSGTSYSLTISRVEAEDAATYYCQQWSFNPPTFGGGTKLEIKHHHHHH
notes: First three domains of CD22 (further mutated) fused to Leu16 scFv, C-terminal His tag; also called construct #65; #65
B9: binds [6].

— patent US10508143 (ALETA BIOTHERAPEUTICS, dated 2019)
